Assay results reported in the supplement of paper PMC11246515.
± gives the standard deviation of the averaged measurements.

Assay: total protein half-life in vivo (active degradation + dilution); higher = more stable protein
[1] = E. coli NCM3722 delta-clpP delta-lon delta-hslV, growth: N-lim chemostat, doubling time 6 h
[2] = E. coli NCM3722 delta-hslV, growth: N-lim chemostat, doubling time 6 h
[3] = E. coli NCM3722 delta-lon, growth: N-lim chemostat, doubling time 6 h
[4] = E. coli NCM3722 delta-smpB, growth: N-lim chemostat, doubling time 6 h
[5] = wild type E. coli NCM3722, growth: C-lim chemostat, doubling time 3 h
[6] = wild type E. coli NCM3722, growth: C-lim chemostat, doubling time 6 h
[7] = wild type E. coli NCM3722, growth: C-lim chemostat, doubling time 12 h
[8] = wild type E. coli NCM3722, growth: N-lim chemostat, doubling time 6 h
[9] = wild type E. coli NCM3722, growth: N-lim chemostat, doubling time 12 h
[10] = wild type E. coli NCM3722, growth: P-lim chemostat, doubling time 6 h
[11] = wild type E. coli NCM3722, growth: P-lim chemostat, doubling time 12 h
[12] = E. coli NCM3722 delta-clpP, growth: N-lim chemostat, doubling time 6 h

Row | Sequence | total protein half-life in vivo [1] | total protein half-life in vivo [2] | total protein half-life in vivo [3] | total protein half-life in vivo [4] | total protein half-life in vivo [5] | total protein half-life in vivo [6] | total protein half-life in vivo [7] | total protein half-life in vivo [8] | total protein half-life in vivo [9] | total protein half-life in vivo [10] | total protein half-life in vivo [11] | total protein half-life in vivo [12]
1 | MKQPGEELQETLTELDDRAVVDYLIKNPEFFIRNARAVEAIRVPHPVRGTVSLVEWHMARARNHIHVLEENMALLMEQAIANEGLFYRLLYLQRSLTAASSLDDMLMRFHRWARDLGLAGASLRLFPDRWRLGAPSNHTHLALSRQSFEPLRIQRLGQEQHYLGPLNGPELLVVLPEAKAVGSVAMSMLGSDADLGVVLFTSRDASHYQQGQGTQLLHEIALMLPELLERWIERV | 5.46 ± 0.28 h | 1.73 ± 0.75 h | 1.21 ± 0.07 h | 0.944 ± 0.016 h | 1.4 ± 0.051 h | 2.35 ± 0.43 h | 2.74 ± 0.45 h | 1.33 h | 1.56 h | 2.18 ± 0.26 h | 3.12 ± 1 h | –
2 | MKQSHFFAHLSRLKLINRWPLMRNVRTENVSEHSLQVAMVAHALAAIKNRKFGGNVNAERIALLAMYHDASEVLTGDLPTPVKYFNSQIAQEYKAIEKIAQQKLVDMVPEELRDIFAPLIDEHAYSDEEKSLVKQADALCAYLKCLEELAAGNNEFLLAKTRLEATLEARRSQEMDYFMEIFVPSFHLSLDEISQDSPL | 4.544 ± 0.041 h | 4.17 ± 0.19 h | 5.57 ± 1.7 h | 4.07 ± 0.4 h | 2.94 ± 0.21 h | 5.64 ± 0.19 h | – | 4.16 ± 0.45 h | 7.12 ± 0.38 h | 4.86 ± 0.56 h | 9.76 ± 0.83 h | 4.34 ± 0.065 h
3 | MKQTQRHNGIIELVKQQGYVSTEELVEHFSVSPQTIRRDLNELAEQNLILRHHGGAALPSSSVNTPWHDRKATQTEEKERIARKVAEQIPNGSTLFIDIGTTPEAVAHALLNHSNLRIVTNNLNVANTLMVKEDFRIILAGGELRSRDGGIIGEATLDFISQFRLDFGILGISGIDSDGSLLEFDYHEVRTKRAIIENSRHVMLVVDHSKFGRNAMVNMGSISMVDAVYTDAPPPVSVMQVLTDHHIQLELC [P0ACL0] | 6.303 ± 0.03 h | 5.156 ± 0.034 h | 5.78 ± 0.11 h | 5.52 ± 0.89 h | 2.84 ± 0.11 h | 5.9 ± 0.41 h | 10.73 ± 0.031 h | 5.84 ± 0.25 h | 10.323 ± 0.00092 h | 5.28 ± 0.33 h | 11.3 ± 0.63 h | 5.91 ± 0.36 h
4 | MKQTVAAYIAKTLESAGVKRIWGVTGDSLNGLSDSLNRMGTIEWMSTRHEEVAAFAAGAEAQLSGELAVCAGSCGPGNLHLINGLFDCHRNHVPVLAIAAHIPSSEIGSGYFQETHPQELFRECSHYCELVSSPEQIPQVLAIAMRKAVLNRGVSVVVLPGDVALKPAPEGATMHWYHAPQPVVTPEEEELRKLAQLLRYSSNIALMCGSGCAGAHKELVEFAGKIKAPIVHALRGKEHVEYDNPYDVGMTGLIGFSSGFHTMMNADTLVLLGTQFPYRAFYPTDAKIIQIDINPASIGAHSKVDMALVGDIKSTLRALLPLVEEKADRKFLDKALEDYRDARKGLDDLAKPSEKAIHPQYLAQQISHFAADDAIFTCDVGTPTVWAARYLKMNGKRRLLGSFNHGSMANAMPQALGAQATEPERQVVAMCGDGGFSMLMGDFLSVVQMKLPVKIVVFNNSVLGFVAMEMKAGGYLTDGTELHDTNFARIAEACGITGIRVEKASEVDEALQRAFSIDGPVLVDVVVAKEELAIPPQIKLEQAKGFSLYMLRAIISGRGDEVIELAKTNWLR | 5.5 ± 0.51 h | 4.77 ± 0.08 h | 5.321 ± 0.051 h | 4.71 ± 0.4 h | 3.19 ± 0.15 h | 5.59 ± 0.21 h | 11.2 ± 2.6 h | 4.7 ± 0.064 h | 7.734 ± 0.064 h | 5.614 ± 0.02 h | 11.6 ± 0.17 h | 5.2 ± 0.97 h
5 | MKQTVYIASPESQQIHVWNLNHEGALTLTQVVDVPGQVQPMVVSPDKRYLYVGVRPEFRVLAYRIAPDDGALTFAAESALPGSPTHISTDHQGQFVFVGSYNAGNVSVTRLEDGLPVGVVDVVEGLDGCHSANISPDNRTLWVPALKQDRICLFTVSDDGHLVAQDPAEVTTVEGAGPRHMVFHPNEQYAYCVNELNSSVDVWELKDPHGNIECVQTLDMMPENFSDTRWAADIHITPDGRHLYACDRTASLITVFSVSEDGSVLSKEGFQPTETQPRGFNVDHSGKYLIAAGQKSHHISVYEIVGEQGLLHEKGRYAVGQGPMWVVVNAH | – | 4.79 ± 0.47 h | 6.52 ± 0.2 h | 4.87 ± 0.15 h | 3.17 ± 0.23 h | – | 11.1 ± 2 h | 4.95 ± 0.27 h | 9.37 ± 2.2 h | 6.2 ± 2.5 h | – | 4.59 ± 0.99 h
6 | MKRASLLTLTLIGAFSAIQAAWAVDYPLPPTGSRLVGQNQTYTVQEGDKNLQAIARRFDTAAMLILEANNTIAPVPKPGTTITIPSQLLLPDAPRQGIIVNLAELRLYYYPPGENIVQVYPIGIGLQGLETPVMETRVGQKIPNPTWTPTAGIRQRSLERGIKLPPVVPAGPNNPLGRYALRLAHGNGEYLIHGTSAPDSVGLRVSSGCIRMNAPDIKALFSSVRTGTPVKVINEPVKYSVEPNGMRYVEVHRPLSAEEQQNVQTMPYTLPAGFTQFKDNKAVDQKLVDKALYRRAGYPVSVSSGATPAASNAPSVESAQNGEPEQGNMLRVTQ | 5.45 ± 0.37 h | 5.75 ± 0.64 h | 5.59 ± 0.22 h | 5.31 ± 0.5 h | 3.12 ± 0.47 h | 6.04 ± 1.4 h | 12.4 ± 2.9 h | 5.2 ± 0.094 h | 9.08 ± 0.15 h | 5.28 ± 0.24 h | 11.2 ± 1.1 h | 5.31 ± 0.28 h
